Experiment [1] deals with K8(1-124)/K18(1-124) heterotypic complex (human) (UniProt P05787). Put plainly: SPR (BIAcore), complex immobilized, COU-1 injected. In general terms: Surface plasmon resonance follows binding to a sensor surface in real time, without labels.
For experiment [2], the target named is K8(1-124)/intact K18 heterotypic complex (human) (UniProt P05787). Put plainly: SPR (BIAcore), complex immobilized, COU-1 injected.
Experiment [3] concerns the target lysate of the colon cancer cell line colon 137 (COU-1 antigen positive). In words: ELISA on coated colon 137 lysate.

Results on 2 molecules are retold here after patent US20050048070A1.

B1: human monoclonal IgM antibody COU-1 (antibody, V domains shown)
VH: GAEVKKPGASVKVSCKASDYTFSSYYMHWVRQAPGQGLEWMGIINPSGGSTSYAQKFQGRVTMTRDTSTNTVYMELSSLRSEDTAVYYCARDQVVVAATLSNYGMDVWGQGTTVTVSS
VL: ELTQSPGTLSLSPGERATLSCRASQSVSSSYLAWYQQKPGQAPRLLIYDASNRATGIPARFSGSGSGTDFTLTISSLEPEDFAVYYCQQGTNWGIAFGQGTRLDIKR
With B1, in experiment [1], the Ka turned out to be 9.5e+08 M⁻¹, the Kd came out at 1.05 nM, the koff is 0.0003 s⁻¹ and the kon came out at 280000 M⁻¹ s⁻¹. Further, in experiment [2], the Ka was found to be 1.4e+09 M⁻¹, the Kd came to 0.71 nM, the koff was found to be 0.00012 s⁻¹ and the kon came out at 170000 M⁻¹ s⁻¹. In experiment [3], this molecule came in with a concentration needed for saturation of 1 µg/mL.

B2: recombinant B9165 Fab (Fab, V domains shown)
VH: GAEVKKPGASVKVSCKASDYTFSSYYMHWVRQAPGQGLEWMGIINPSGGSTSYAQKFQGRVTMTRDTSTNTVYMELSSLRSEDTAVYYCARDQVVVAATLSNYGMDVWGQGTTVTVSS
VL: ELTQSPGTLSLSPGERATLSCRASQSVSSSYLAWYQQKPGQAPRLLIYDASNRATGIPARFSGSGSGTDFTLTISSLEPEDFAVYYCQQGTNWGIAFGQGTRLDIKR
Turning to B2, the concentration needed for saturation in experiment [3] was determined as 20 µg/mL.

A word on the Kd: it is the concentration at which binding is half-saturated. The term koff denotes the first-order rate constant of dissociation. By kon is commonly meant a measure of how fast the partners come together.
